{
  "source": "paper PMC4503747",
  "about": "“The Gcn2 Regulator Yih1 Interacts with the Cyclin Dependent Kinase Cdc28 and Promotes Cell Cycle Progression through G2/M in Budding Yeast” (PLoS ONE, 2015)",
  "binders": {"B1": {"name": "Cdc28 (endogenous, yeast whole cell extract) (natural protein)", "chain": "not shown", "notes": "Cdc28, cyclin-dependent kinase of S. cerevisiae, endogenous; In the extract Cdc28 may be in complexes with cyclins and other regulators; also called endogenous Cdc28; native Cdc28; source: endogenous, S. cerevisiae whole cell extract"}},
  "target": "T1, GST-Yih1*H2 (E87A and D90A in helix H2 of the RWD domain) (S. cerevisiae, UniProt P25637 1-258, E87A | D90A)",
  "T1 construct": "Yih1, S. cerevisiae, with alanine substitutions of Glu-87 and Asp-90;; source: S. cerevisiae yih1Δ strain MSY-Y2, galactose-inducible promoter, in whole cell extract",
  "T1 sequence (looked up)": "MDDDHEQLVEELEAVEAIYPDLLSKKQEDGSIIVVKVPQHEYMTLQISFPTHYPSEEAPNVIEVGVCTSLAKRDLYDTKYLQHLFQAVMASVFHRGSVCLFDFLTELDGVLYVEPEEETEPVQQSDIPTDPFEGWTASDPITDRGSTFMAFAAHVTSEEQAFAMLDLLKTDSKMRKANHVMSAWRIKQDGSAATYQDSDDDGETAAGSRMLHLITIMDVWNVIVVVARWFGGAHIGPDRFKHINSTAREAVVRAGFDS",
  "assay": "pull-down; in vivo GST pull-down: GST fusions overexpressed in yeast from a galactose-inducible promoter (yih1Δ strains; gcn1Δ strain H2556 for the fragments; also cells arrested in G1 with α-factor and released), WCE (1-2 mg) on glutathione beads, immunoblot for endogenous proteins",
  "conditions": "partners not purified",
  "data": [
    {"binder": "B1", "values": [
      {"measurement": "fold increase of co-precipitated Cdc28 against wild type GST-Yih1", "value": "~5", "unit": "fold"}
    ]}
  ]
}
